The target in test [1] is toxin-binding region from T. ni cadherin (TnCAD-FL) (Trichoplusia ni). The test is described as follows: BLI. (In general: In BLI a coated tip is dipped into the sample, and binding shifts an interference pattern.)
Test [2] concerns the target SH2 domain of ABL1 kinase fused to the 434 phage cI repressor (UniProt P00519). The experiment in a line: two-hybrid.

What is called Kd is the concentration at which binding is half-saturated. A low value points to higher affinity. Turning to “wild-type Cry1Ac, trypsin-activated (from UniProt P05068 1-1178) (natural protein)”, the Kd in test [1] is > 1 mM.
Turning to “wild-type HA4 monobody fused to RpoZ (designed binder)”, the fold transcriptional activation in test [2] is > 200 fold.

The values above are taken from PMC4865400.
